Laboratory results: patent publication US20160354437A1 (NORTHWESTERN UNIVERSITY, published 2016)

T1: AIM2 (human, UniProt O14862 1-343)
T1 construct: Endogenous in THP-1 lysates and hMΦ; N-terminally tagged (RFP, myc) where transfected into HEK293; also called endogenous AIM2; RFP-AIM2
T1 sequence (looked up): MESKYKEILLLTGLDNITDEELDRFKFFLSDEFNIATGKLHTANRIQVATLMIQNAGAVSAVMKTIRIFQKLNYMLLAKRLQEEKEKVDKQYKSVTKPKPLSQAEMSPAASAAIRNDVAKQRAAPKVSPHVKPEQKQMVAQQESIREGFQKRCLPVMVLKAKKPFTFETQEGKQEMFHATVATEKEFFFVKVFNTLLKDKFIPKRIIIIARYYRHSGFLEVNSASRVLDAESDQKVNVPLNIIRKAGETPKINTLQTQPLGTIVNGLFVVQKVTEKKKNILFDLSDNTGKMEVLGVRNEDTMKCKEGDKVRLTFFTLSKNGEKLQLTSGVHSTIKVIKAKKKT

T2: mouse ASC (mouse, UniProt Q9EPB4 1-193)
T2 construct: also called mASC; endogenous ASC in BMDM
T2 sequence (looked up): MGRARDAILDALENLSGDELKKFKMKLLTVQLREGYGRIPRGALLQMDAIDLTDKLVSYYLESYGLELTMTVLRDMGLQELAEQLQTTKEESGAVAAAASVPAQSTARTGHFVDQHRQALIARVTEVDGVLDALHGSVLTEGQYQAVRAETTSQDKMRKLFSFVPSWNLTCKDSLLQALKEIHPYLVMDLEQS

T3: AIM2 from BMDM (mouse, UniProt Q91VJ1 1-354)
T3 construct: also called mAIM2; mouse AIM2
T3 sequence (looked up): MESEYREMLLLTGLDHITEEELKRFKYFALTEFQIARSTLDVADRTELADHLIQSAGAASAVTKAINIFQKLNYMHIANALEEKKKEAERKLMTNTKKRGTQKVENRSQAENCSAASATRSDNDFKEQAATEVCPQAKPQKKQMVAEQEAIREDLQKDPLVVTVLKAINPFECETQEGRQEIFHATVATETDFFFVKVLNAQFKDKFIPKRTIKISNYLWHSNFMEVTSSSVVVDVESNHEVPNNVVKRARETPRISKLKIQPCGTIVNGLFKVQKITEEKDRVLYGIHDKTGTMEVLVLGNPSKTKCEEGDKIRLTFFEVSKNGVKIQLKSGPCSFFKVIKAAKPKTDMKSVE

B1: POP3 (other)
chain: MESKYKEILLLTSLDNITDEELDRFKCFLPDEFNIATGKLHTLNSTSSQLDLKRWHGVCSEEDRIFQKLNYMLVAKCLREEQETGICGSPSSARSVSQSRLGLSFHGISGNAC
notes: POP3 as expressed in cells (HEK293, THP-1, hMΦ); in some microscopy endogenous POP3; also called GFP-POP3; PYRIN domain-only protein 3; not shown: N-terminal tag; GFP-POP3 is named for the co-IP, constructs with myc, HA, Flag, GFP or RFP were made
B2: GST-POP3 (other)
chain: B1 chain
notes: also called recombinant POP3; immobilized GST-POP3; not shown: glutathione S-transferase (GST) tag encoded by pGEX-4T1
B3: PYD of MNDA (other, human, UniProt P41218 1-88, looked up)
chain: MVNEYKKILLLKGFELMDDYHFTSIKSLLAYDLGLTTKMQEEYNRIKITDLMEKKFQGVACLDKLIELAKDMPSLKNLVNNLRKEKSK
notes: domain: PYD; also called MNDA-PYD
B4: PYD of IFI16 (other, human, UniProt Q16666 1-88, looked up)
chain: MGKKYKNIVLLKGLEVINDYHFRMVKSLLSNDLKLNLKMREEYDKIQIADLMEEKFRGDAGLGKLIKIFEDIPTLEDLAETLKKEKLK
notes: domain: PYD; also called IFI16-PYD; IF116 PYD
B5: PYD of PYHIN1 (other, human, UniProt Q6K0P9 1-88, looked up)
chain: MANNYKKIVLLKGLEVINDYHFRIVKSLLSNDLKLNPKMKEEYDKIQIADLMEEKFPGDAGLGKLIEFFKEIPTLGDLAETLKREKLK
notes: domain: PYD; also called IFIX-PYD
B6: PYD of AIM2 (other, human, UniProt O14862 1-87, looked up)
chain: MESKYKEILLLTGLDNITDEELDRFKFFLSDEFNIATGKLHTANRIQVATLMIQNAGAVSAVMKTIRIFQKLNYMLLAKRLQEEKEK
notes: domain: PYD; Made by in vitro transcription/translation for the GST pull-down; GFP- or RFP-tagged in HEK293 for the antibody specificity blot; also called AIM2-PYD
B7: GST-POP1 (other)
chain: MGTKREAILKVLENLTPEELKKFKMKLGTVPLREGFERIPRGALGQLDIVDLTDKLVASYYEDYAAELVVAVLRDMRMLEEAARLQRAA
notes: also called immobilized GST-POP1; not shown: glutathione S-transferase (GST) tag encoded by pGEX-4T1

Tests used:
co-IP in HEK293 cells = biological target: the molecule itself; assay: co-IP in HEK293 cells
AIM2 [1] = biological target: T1, AIM2; assay: figure title (pull-down, co-IP, co-localisation)
mouse ASC = biological target: T2, mouse ASC; assay: GST pull-down from BMDM lysates (FIG. 11a)
Procedure: For GST pull down experiments, POP3 was cloned into pGEX-4T1 and affinity purified as a GST fusion protein from E. coli BL21. Proteins were either prepared by in vitro transcription/translation (TNT Quick Coupled Transcription/Translation, Promega), or TCL were prepared from […] (16 hrs) BMDM or THP-1 cells by lysis (50 mM Hepes pH 7.4, 120 mM NaCl, 10% Glycerol, 2 mM EDTA, 0.5% Triton X-100, supplemented with protease inhibitors) as a source of endogenous proteins, and cleared lysates were incubated with immobilized GST-POP3 or GST control for 16 hrs at 4° C., followed by extensive washing with lysis buffer and analysis as above. For ASC cross-linking, 4×10⁶ BMDM were seeded in 60 mm plates and subjected to cross-linking as described 55. […] Samples were centrifuged at 5,000 rpm for 10 min at 4° C. and the cross-linked pellets were resuspended in 50 μl Laemmli sample buffer and analyzed by immunoblot. […]
The PYDs of human and mouse ALRs are well conserved. […] To delineate the mechanism by which POP3 inhibits ALR inflammasomes in mouse macrophages, ASC oligomerization was analyzed in response to AIM2 inflammasome stimulation with poly(dA:dT) in WT and CD68-POP3 TG BMDM as a readout for AIM2 inflammasome formation (Fernandes-Alnemri et al. Nature.

GST-POP3 = biological target: B2; assay: GST pull-down (FIG. 4a)
Procedure: (§1) For GST pull down experiments, POP3 was cloned into pGEX-4T1 and affinity purified as a GST fusion protein from E. coli BL21. Proteins were either prepared by in vitro transcription/translation (TNT Quick Coupled Transcription/Translation, Promega), or TCL were prepared from […] (16 hrs) BMDM or THP-1 cells by lysis (50 mM Hepes pH 7.4, 120 mM NaCl, 10% Glycerol, 2 mM EDTA, 0.5% Triton X-100, supplemented with protease inhibitors) as a source of endogenous proteins, and cleared lysates were incubated with immobilized GST-POP3 or GST control for 16 hrs at 4° C., followed by extensive washing with lysis buffer and analysis as above. For ASC cross-linking, 4×10⁶ BMDM were seeded in 60 mm plates and subjected to cross-linking as described 55. Briefly, cells were transfected with 1 μg/ml poly (dA:dT) for 5 hrs, supernatants were removed, cells rinsed with ice-cold PBS and lysed (20 mM Hepes pH 7.4, 100 mM NaCl, 1% NP-40, 1 mM sodium orthovanadate, supplemented with protease inhibitors) and further lysed by shearing. Cleared lysates were stored for immunoblot analysis and the insoluble pellets were resuspended in 500 μl PBS, supplemented with 2 mM disuccinimydyl suberate (DSS, Pierce) and incubated with rotation at room temperature for 30 min. Samples were centrifuged at 5,000 rpm for 10 min at 4° C. and the cross-linked pellets were resuspended in 50 μl Laemmli sample buffer and analyzed by immunoblot. Human lung tissue was embedded in paraffin, cut into 3 μm sections, mounted, deparaffinized and immunostained with mouse monoclonal CD68 (Dako) and rabbit polyclonal POP3 and peroxidase (HRP)/DAB+ and alkaline phosphatase (AP)/Fast Red enzyme/chromogen combinations (Dako) and specific isotype controls (Dako) and haemotoxylin counterstaining of nuclei.
(§2) GST-POP3, but not GST control, bound to the PYD of AIM2 and IF116.

GST control = biological target: T4, GST control (UniProt P08515 1-218 = GST); assay: GST pull-down (FIG. 4a)
T4 construct: Negative control of the GST pull-downs
T4 sequence (P08515 whole entry): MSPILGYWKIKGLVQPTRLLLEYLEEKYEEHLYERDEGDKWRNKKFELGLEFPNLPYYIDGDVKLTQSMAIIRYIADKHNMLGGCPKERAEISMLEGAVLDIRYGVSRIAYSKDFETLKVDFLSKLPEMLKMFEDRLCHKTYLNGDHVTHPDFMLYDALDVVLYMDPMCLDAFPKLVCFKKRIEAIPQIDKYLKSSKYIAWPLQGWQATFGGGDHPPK
Procedure: as §1, §2

AIM2 from BMDM = biological target: T3, AIM2 from BMDM; assay: GST pull-down from BMDM lysates (FIG. 22c)
Procedure: (§3) POP1 was expressed from pGEX-4T1 and affinity purified as a GST fusion protein from E. coli BL21 (Stehlik et al. Biochem. J 373, 101-113 (2003); herein incorporated by reference in its entirety). Protein lysates were prepared from LPS-treated (16 h) BMDM or THP-1 cells by lysis (50 mM Hepes pH 7.4, 120 mM NaCl, 10% Glycerol, 2 mM EDTA, 0.5% Triton X-100, supplemented with protease inhibitors), and cleared lysates were incubated with immobilized GST-POP1 or GST control for 16 h at 4° C., followed by extensive washing with lysis buffer and analysis as above.

NLRP3 from BMDM = biological target: T5, NLRP3 from BMDM (mouse, UniProt Q8R4B8 1-1033); assay: GST pull-down from BMDM lysates (FIG. 22c)
T5 construct: also called mNLRP3; mouse NLRP3
T5 sequence (Q8R4B8 whole entry): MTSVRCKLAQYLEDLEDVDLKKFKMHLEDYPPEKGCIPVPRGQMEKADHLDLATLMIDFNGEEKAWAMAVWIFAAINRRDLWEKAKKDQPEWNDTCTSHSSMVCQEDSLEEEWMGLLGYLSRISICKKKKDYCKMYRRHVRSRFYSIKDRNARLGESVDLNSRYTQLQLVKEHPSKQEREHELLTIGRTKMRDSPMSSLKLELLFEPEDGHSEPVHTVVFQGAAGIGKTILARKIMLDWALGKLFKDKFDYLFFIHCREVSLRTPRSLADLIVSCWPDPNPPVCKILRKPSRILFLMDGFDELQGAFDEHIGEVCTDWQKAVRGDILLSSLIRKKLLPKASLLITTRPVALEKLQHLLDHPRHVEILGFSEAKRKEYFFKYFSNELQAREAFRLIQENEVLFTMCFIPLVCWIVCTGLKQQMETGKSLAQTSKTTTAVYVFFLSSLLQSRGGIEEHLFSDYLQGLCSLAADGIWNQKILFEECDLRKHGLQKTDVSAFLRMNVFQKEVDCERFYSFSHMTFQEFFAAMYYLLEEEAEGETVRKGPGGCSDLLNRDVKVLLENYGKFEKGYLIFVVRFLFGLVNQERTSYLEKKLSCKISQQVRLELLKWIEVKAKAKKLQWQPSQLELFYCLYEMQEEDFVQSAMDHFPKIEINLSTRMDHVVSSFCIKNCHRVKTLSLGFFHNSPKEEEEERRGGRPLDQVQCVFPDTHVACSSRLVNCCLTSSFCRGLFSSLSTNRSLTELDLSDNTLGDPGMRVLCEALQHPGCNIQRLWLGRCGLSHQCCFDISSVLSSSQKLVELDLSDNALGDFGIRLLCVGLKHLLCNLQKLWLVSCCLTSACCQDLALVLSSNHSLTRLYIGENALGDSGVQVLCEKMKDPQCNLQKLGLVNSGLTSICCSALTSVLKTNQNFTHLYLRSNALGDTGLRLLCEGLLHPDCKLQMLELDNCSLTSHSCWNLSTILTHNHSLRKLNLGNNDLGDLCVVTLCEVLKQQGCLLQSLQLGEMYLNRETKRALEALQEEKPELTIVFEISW
Procedure: as §3

NLRP3 = biological target: T6, NLRP3 (human, UniProt Q96P20 1-1036); assay: GST pull-down from THP-1 lysates (FIG. 18a)
T6 construct: Endogenous in THP-1 lysates; MYC-tagged where transfected into HEK293; also called MYC-NLRP3; endogenous NLRP3
T6 sequence (Q96P20 whole entry): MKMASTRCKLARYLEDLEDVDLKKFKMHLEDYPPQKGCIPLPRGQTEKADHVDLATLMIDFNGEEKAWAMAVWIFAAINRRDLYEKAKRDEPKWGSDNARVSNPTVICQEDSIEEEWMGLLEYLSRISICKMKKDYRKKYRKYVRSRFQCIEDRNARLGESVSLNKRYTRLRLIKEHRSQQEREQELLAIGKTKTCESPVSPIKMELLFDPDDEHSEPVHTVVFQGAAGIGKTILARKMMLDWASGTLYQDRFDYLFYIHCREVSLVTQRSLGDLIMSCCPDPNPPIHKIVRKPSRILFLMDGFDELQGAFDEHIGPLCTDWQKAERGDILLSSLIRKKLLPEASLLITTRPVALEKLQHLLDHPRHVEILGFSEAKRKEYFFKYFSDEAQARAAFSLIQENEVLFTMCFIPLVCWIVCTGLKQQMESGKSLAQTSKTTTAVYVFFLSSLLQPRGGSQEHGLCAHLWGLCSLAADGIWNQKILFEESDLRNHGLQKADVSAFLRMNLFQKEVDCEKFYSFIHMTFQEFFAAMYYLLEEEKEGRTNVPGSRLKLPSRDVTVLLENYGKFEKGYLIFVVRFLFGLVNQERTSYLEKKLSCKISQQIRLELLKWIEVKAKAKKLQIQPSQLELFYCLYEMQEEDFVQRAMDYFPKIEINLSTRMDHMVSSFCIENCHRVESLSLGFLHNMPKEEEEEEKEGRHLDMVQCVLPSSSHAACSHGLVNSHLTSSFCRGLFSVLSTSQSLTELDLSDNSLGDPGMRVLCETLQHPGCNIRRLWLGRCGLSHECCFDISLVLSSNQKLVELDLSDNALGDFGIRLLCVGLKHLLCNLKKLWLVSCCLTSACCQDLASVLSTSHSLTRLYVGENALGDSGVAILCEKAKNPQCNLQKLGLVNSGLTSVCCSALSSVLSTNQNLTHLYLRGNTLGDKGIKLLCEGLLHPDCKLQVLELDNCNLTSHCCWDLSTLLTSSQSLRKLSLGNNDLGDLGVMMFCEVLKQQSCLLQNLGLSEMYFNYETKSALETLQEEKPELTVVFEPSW
Procedure: as §3
(§4) Recruitment of ASC to upstream sensors is essential for inflammasome activation. POP1 specifically bound to endogenous ASC, but not to the PYD-containing PRRs NLRP3 and AIM2 in LPS-primed THP-1 cells (FIG. 18a), emphasizing the selectivity of these interactions. […] Binding of ASC to NLRP3 induces ASC^PYD nucleation, which provides the oligomeric platform essential for caspase-1 activation (Lu et al. Cell 156, 1193-206 (2014); Cai et al. Cell 156, 1207-22 (2014); herein incorporated by reference in their entireties). […] POP1 binding to the ASC^PYD could also directly prevent ASC^PYD self-polymerization.

AIM2 [2] = biological target: T1, AIM2; assay: GST pull-down from THP-1 lysates (FIG. 18a)
Procedure: as §3, §4

Binder: B1
binding result (co-IP in HEK293 cells): binds
binding result (AIM2 [1]): binds

Binder: B2
binding result (mouse ASC): no binding

Binder: B3
binding result (GST-POP3): no binding

Binder: B4
binding result (GST control): no binding

Binder: B5
binding result (GST-POP3): no binding

Binder: B6
binding result (GST control): no binding

Binder: B7
binding result (AIM2 from BMDM): no binding
binding result (NLRP3 from BMDM): no binding
binding result (NLRP3): no binding
binding result (AIM2 [2]): no binding
